Measured values reported in the nanobody polyreactivity screen of Harvey et al. (2022).

Experiment: yeast display, Sf9 membrane polyspecificity reagent, FACS + sequencing; frameworks hold sequencing errors
How it was run: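 A synthetic nanobody library was expressed on Saccharomyces cerevisiae BJ5465 by galactose induction for 36–48 hours. The library was stained for 1 hour at 4 °C with 10% biotinylated, detergent-solubilized Sf9 membrane reagent and enriched with streptavidin microbeads before FACS. Low and high (top ~1%) gates were set on anti-HA fluorescence for expression and streptavidin fluorescence for reagent binding, and each polyreactivity label reflects the gate of origin.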

Row | Sequence | polyreactivity (PSR sort gate)
1 | QVQLVESGGGLVQAGGSLRLSCAASGFIFDIYAMGWYRQAPGKERELVASINWSGGDSTSYADSVKGRFTISRDNAKNTVYLQMNSLKPEDTAVYYCNAEYWSYAGGYPDEYDYWGQGTQVTVSS | low polyreactivity
2 | QVQLVESGGGLVQAGGSLRLSCAASGFIFDIYAMGWYRQAPGKERELVASINWSGGDSTSYADSVKGRFTISRVNAKNTVSLQMNILKPEDTAVYYCIAEYWYYAGGYPDEYDYWGQGPQVTVSS | low polyreactivity
3 | QVQLVESGGGLVQAGGSLRLSCAASGFIFDQNAMGWYRQAPGKERELVAAISKRGGSTYYADSVKGRFTISRDNAKNTVYLQMNSLKPEDTAVYYCATRSWGPYYYGYNHWGQGTQETVSS | high polyreactivity
4 | QVQLVESGGGLVQAGGSLRLSCAASGFIFDRYAMGWYRQAPGKERELVAVISKSGGRTYYADSVKGRFTISRDHAKNTVYLQMNSLKPEDTAVYYCAAYYKSTYVTGDYWGQGTQVTVSS | high polyreactivity
5 | QVQLVESGGGLVQAGGSLRLSCAASGFIFDSYAMGWYRQAPGKERELVAAISYSGGNTYYADSVKGRFTISRDNAKNTVYLQMNSLKPEDTAVYYCAAEWSDSRWWRLWWYGEDDYWGQGTQVTVSS | high polyreactivity
6 | QVQLVESGGGLVQAGGSLRLSCAASGFIFDTYVMGWYRQAPGKERELVAAISRTGGRTYYADSVKGRFTISRDNAKNTVYLQMNSLKPEDTAVYYCAAKVYYPYLFTSYDYWGQGTQVTVSS | high polyreactivity
7 | QVQLVESGGGLVQAGGSLRLSCAASGFIFDWNAMGWYRQAPGKERELVAAITWGGDGTFYADSVKGRFTISRDNAKNTVYLQMNSLKPEDTAVYYCAADSDSSFWWYYSWGQGTQVTVSS | low polyreactivity
8 | QVQLVESGGGLVQAGGSLRLSCAASGFIFDYYAMGWYRHAPGKERELVAAITSRGGSTYYADSVKGRFTISRDNAKNTVYLQMNSLKPEDTAVYYCAARRRSAEYNYWGQGTQVTVSS | high polyreactivity
9 | QVQLVESGGGLVQAGGSLRLSCAASGFIFDYYAMGWYRQAPGKERELVAAISGSGTSTYYADSVKGRFTISRDNAKYTVYLQMNSLKPEDTAVYYCSAESDWWSDIGYYWGQGTQVTVSS | high polyreactivity
10 | QVQLVESGGGLVQAGGSLRLSCAASGFIFDYYAMGWYRQAPGKERELVAGISRRGGSTYYADSVKGRFTISRDNAKNTVYLQMNSLKPEDTAVYYCNADAWRKVPHPGTGGRDYWGQGTQVTVSS | high polyreactivity
11 | QVQLVESGGGLVQAGGSLRLSCAASGFIFDYYAMGWYRQAPGKEWELVAGITRDGSTNYADSVKGRFTISRDNAKNTVYLQMNSLKPEDTAVYYCAAGPPRTRYRNARFDYWGQGTQVTVSS | high polyreactivity
12 | QVQLVESGGGLVQAGGSLRLSCAASGFIFEKYTMGWYRQAPGKERELVAAITWNGGSTYYADSVKGRFTISRDNAKNTVYLQMNSLIPEDTAVYYCARDDRDISGESGREGFLYDYWGQGTQVTVSS | low polyreactivity
13 | QVQLVESGGGLVQAGGSLRLSCAASGFIFEPYAMGWYRQEPGKERELVAAISNSDSTNYADSVKGLFTISRDNAKNTVYLQMNSLKAEDTAVYYCNADFSKSYDYWGQGTQVTVSS | low polyreactivity
14 | QVQLVESGGGLVQAGGSLRLSCAASGFIFESNAMGWYRQAPGKERELVAAITKRGGSTYYADSVKGRFTISRDNAKNTVYLQMNSLKPEDTAVYYCARYSSRYSSGYDYWGQGTQVTVSS | high polyreactivity
15 | QVQLVESGGGLVQAGGSLRLSCAASGFIFESTAMGWYRQAPGKERELVAGISNGDSTDYADSVKGRFTISRDNAKNTCYLQMNSLNPEDTAVYYCNAELWYSPYSQTTVRYDYWGQVTQVTVSS | low polyreactivity
16 | QVQLVESGGGLVQAGGSLRLSCAASGFIFEWNGMGWYRQAPGKERELVAAITWSGGSTYYADSVKGRFTISRDNAKNTVYLQMNSLKPEDTAVYYCNAYWKDDFEDGPGRRGMDYWGQGTQVTVSS | low polyreactivity
17 | QVQLVESGGGLVQAGGSLRLSCAASGFIFEWYTMGWYRQAPGKERELVARISSDGSTTYADSVKGRFTISRDNAKNTVYLQMNSLNPEDTAVYYCAADVTYPGLIYIYDYWGQGTQVTVSS | low polyreactivity
18 | QVQLVESGGGLVQAGGSLRLSCAASGFIFEYNAMGWYRQAPGKERELVAAITSSGGSTYYADSVKGRFTISRDNAKNTVYLKMYSLKPEDTAVYYCARVRRSAYYKDYYYWGQGTQVTVSS | high polyreactivity
19 | QVQLVESGGGLVQAGGSLRLSCAASGFIFEYYAMGWYRQAPGKERELVAAISNGGGRTYYADSVKGRFTISRDNAKNTVYLQMNSLKPEDTAVYYCAAYWVYQRNSRTWEYDYWGQGTQVTVSS | high polyreactivity
20 | QVQLVESGGGLVQAGGSLRLSCAASGFIFEYYAMGWYRQAPGKERELVAAISRGGRTNYADSVKGRFTISRDNAKNTVYLQMNSLKPEDTAVYYCARDYTFYRQVRKYGYWGQGTQVTVSS | high polyreactivity
21 | QVQLVESGGGLVQAGGSLRLSCAASGFIFFKYVMGWYRQAPGKERELVAAISTTGGRTYYADSVKGRFTISRDNAKNTVYLQMNSLKPEDTAVYYCAADYPVWNHGFDYWGQGTQVTVSS | high polyreactivity
22 | QVQLVESGGGLVQAGGSLRLSCAASGFIFFQYAMGWYRQAPGKERELVAAISGSGVTTYYADSVKGRFTISRDNAKNTVYLQMKSLKPEDTPVYYCAARPSGRGYYLLGYWGQGTQVTVSS | low polyreactivity

Row | Sequence | polyreactivity (PSR sort gate)
23 | QVQLVESGGGLVQAGGSLRLSCAASGFIFFRNAMGWYRQAPGKERELVAAISSNGGRTYYADSVKGRFTISRDNAKNTVYLQMNSLTPEDTAVYYCAAANPGSEYDYWGQGTQVNVSS | high polyreactivity
24 | QVQLVESGGGLVQAGGSLRLSCAASGFIFFRYAMGWYRQAPGKERELVAAISSSGGSTYYADSVKGRFTISRDNAKNTVYLQMNSLKPEDTAVYYCAAPRYRIFVGLGMDYWGQGTQVTVSS | high polyreactivity
25 | QVQLVESGGGLVQAGGSLRLSCAASGFIFFRYAMGWYRQAPGKERELVAAISTRTGITYYADSVKGRFTISRDNAKNTVYLQMNSLKPEDTAVYYCNVLRSHSLYPFWKYDYWGQGTQVTVSS | high polyreactivity
26 | QVQLVESGGGLVQAGGSLRLSCAASGFIFGANAMGWYRPAPGKESELVAAISWNGGRTYYADSVKWRFTISRDNAKNTVYLQMNSLKPEDTAVSYCAATGWYGLPTSYRVNYWGQGTQVTVSS | high polyreactivity
27 | QVQLVESGGGLVQAGGSLRLSCAASGFIFGANTMGWYRQAPGKERELVATISWSGGSTYYADSVKGRFTISRDNAKNTVYLQMNSLKPEDTAVYYCAAPGVTYGFRSDYWGQGTQVTVSS | low polyreactivity
28 | QVQLVESGGGLVQAGGSLRLSCAASGFIFGAYAMGWYRQAPGKERELVAAITKSGGRTYYADSVKGRFTISRDNAKNTVYLQMNSLKPEDTAVYFCAAVTRYPREYDYWGQGTQVTVSS | high polyreactivity
29 | QVQLVESGGGLVQAGGSLRLSCAASGFIFGAYAMGWYRQAPGKERELVAAITRSGGNTYYADSVKGRFTISRDNAKNTVYLQMNSLKPEDTAVYYCNVVGVYHYEDYYYWGQGTQVTVSS | high polyreactivity
30 | QVQLVESGGGLVQAGGSLRLSCAASGFIFGFYAMGWYRQAPGKERELVAAITSDGGTYYADSVKGRFTISRDNAKNTVYLQMNSLKPEDTAVYYCAADVLYEVFSWYVGYDYWGQGTQVTVSS | low polyreactivity
31 | QVQLVESGGGLVQAGGSLRLSCAASGFIFGGYARGWYRQAPGKEREFVAAIRQRGGSTYYADSVKGRFTISRDNAKNTVYLQMNSLKPEDTAVYYCAAEPNTQWFDYWGQGTQVTVSS | high polyreactivity
32 | QVQLVESGGGLVQAGGSLRLSCAASGFIFGHYVMGWYRQAPGKERELVAAISVGGGRTYYADSVKGRFTISRDNAKNTVYLQMNSLKPEDTAVYYCRSYGYDYWGQGTQVTVSS | high polyreactivity
33 | QVQLVESGGGLVQAGGSLRLSCAASGFIFGKFAMGWYRPAPGKERELVAAITSDGRTYYADSVKGRFTISRDNAKNTVYLQMNSLKPEDTAVYYCAVDYYWYWYSGYDDYWGQGTQVTVSS | high polyreactivity
34 | QVQLVESGGGLVQAGGSLRLSCAASGFIFGNYVLGWSRQAPGKERELVAAISESGSRTYYADSVKGRFTISRDYAKKTVYLQMNSLKPEDTAVYYCAAALFSYYGEYDYWGQGTQVTVSS | low polyreactivity
35 | QVQLVESGGGLVQAGGSLRLSCAASGFIFGPNAMGWYRQAPGKERELVAAISWIGSSTYYADSVKGRFTISRDNAKNTVYFQMNSLKPQDTAVYYCAADSSERRLMDFDYWGQGTQVTVSS | low polyreactivity
36 | QVQLVESGGGLVQAGGSLRLSCAASGFIFGQNDMGWYRQAPGKERELVAAISSDGSTYYADSVKGRFTISRDNAKNTVYLQMNSLKPEDTAVYYCAAEYSWYYYYLYVGEYDYWGQGTQVTVSS | low polyreactivity
37 | QVQLVESGGGLVQAGGSLRLSCAASGFIFGRYAMGWYRQAPGKERELVAAITRSGGTTYYADSVKGRFTISRDNAKKTVYLQMYSLKPEDTAVYYCAAPRIYYTDDYWGQGTQVTVSS | high polyreactivity
38 | QVQLVESGGGLVQAGGSLRLSCAASGFIFGRYTMGWSRQAPGKEGELVAAISGSDVSTYYADSVKGRFTISRDNAKNTVYLQLNSVKPEDTAVYYCAADAPWAYYEYDYWGQGTQVTVSS | low polyreactivity
39 | QVQLVESGGGLVQAGGSLRLSCAASGFIFGSNAMGWYRQAPGKERELVATITKRGGTTYYADSVKGRFTISRDNAKNTVYLQMNSLKPEDTAVYYCNRSGPGFYSTRFNYWGQGTQVTVSS | high polyreactivity
40 | QVQLVESGGGLVQAGGSLRLSCAASGFIFGSYAMGWYRQAPGKERELVAAITSSGITYYADSVKGRFTISRDNAKNTVYLQMNSLKPEDTAVYYCAAEGSTYQGAPGVYYWGQGTQVTVSS | high polyreactivity
41 | QVQLVESGGGLVQAGGSLRLSCAASGFIFGSYTMGGYRQAPGTERELVAVITCSGSSTYYADSVKGRFTISRDNAKNTVYLQMNSLKPADTAVYYCNAVKFGGYDYWGQGTQVTVSS | high polyreactivity
42 | QVQLVESGGGLVQAGGSLRLSCAASGFIFGVYAMGWYRQAPAKERELDAAISYRTGTTYYADSVKGRFTISRDNAKNTVYLQMNSLKPEDTAVYYCAAKSRAAVRKYGSEYWGQGTQVTVSS | high polyreactivity
43 | QVQLVESGGGLVQAGGSLRLSCAASGFIFGVYPMGWYRQAPGKERELVAAISRSGGSTYYADSVKGRFTISRDSAKNTVYLQMNSLNPEDTAVYYCATHVSLYGKGYYYWGQGTQVTVSS | high polyreactivity
